Measured values taken from patent US20230012273A1 (Boehringer Ingelheim, published 2023).

T1: cynoSIRPα (EGM_02252), Extracellular Domain + His-Tag (cynomolgus monkey)
T1 construct: also called CySIRPα EGM_02252; not shown: His-Tag
T1 chain: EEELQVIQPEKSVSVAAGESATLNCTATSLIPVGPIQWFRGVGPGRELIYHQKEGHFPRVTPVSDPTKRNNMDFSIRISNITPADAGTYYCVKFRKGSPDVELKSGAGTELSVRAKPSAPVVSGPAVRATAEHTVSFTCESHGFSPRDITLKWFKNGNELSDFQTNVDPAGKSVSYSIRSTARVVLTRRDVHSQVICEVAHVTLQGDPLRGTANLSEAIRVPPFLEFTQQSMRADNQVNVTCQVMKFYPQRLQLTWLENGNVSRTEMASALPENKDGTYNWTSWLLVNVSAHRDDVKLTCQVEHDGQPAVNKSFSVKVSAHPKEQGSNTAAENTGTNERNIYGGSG

T2: cynoSIRPα (NP_001271679), Extracellular Domain + His-Tag (cynomolgus monkey)
T2 construct: also called CySIRPα NP_001271679; not shown: His-Tag
T2 chain: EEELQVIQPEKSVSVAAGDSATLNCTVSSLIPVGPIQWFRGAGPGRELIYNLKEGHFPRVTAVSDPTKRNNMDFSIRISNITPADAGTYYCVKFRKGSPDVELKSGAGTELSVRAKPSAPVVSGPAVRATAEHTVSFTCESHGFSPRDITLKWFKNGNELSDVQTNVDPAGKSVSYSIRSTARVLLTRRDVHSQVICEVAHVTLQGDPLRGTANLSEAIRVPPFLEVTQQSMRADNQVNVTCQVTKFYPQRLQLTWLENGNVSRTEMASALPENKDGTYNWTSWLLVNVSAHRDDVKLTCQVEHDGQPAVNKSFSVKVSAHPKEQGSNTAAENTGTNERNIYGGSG

T3: cynoSIRPα (XP_015313155), Extracellular Domain + His-Tag (cynomolgus monkey)
T3 construct: also called CySIRPα XP_015313155; not shown: His-Tag
T3 chain: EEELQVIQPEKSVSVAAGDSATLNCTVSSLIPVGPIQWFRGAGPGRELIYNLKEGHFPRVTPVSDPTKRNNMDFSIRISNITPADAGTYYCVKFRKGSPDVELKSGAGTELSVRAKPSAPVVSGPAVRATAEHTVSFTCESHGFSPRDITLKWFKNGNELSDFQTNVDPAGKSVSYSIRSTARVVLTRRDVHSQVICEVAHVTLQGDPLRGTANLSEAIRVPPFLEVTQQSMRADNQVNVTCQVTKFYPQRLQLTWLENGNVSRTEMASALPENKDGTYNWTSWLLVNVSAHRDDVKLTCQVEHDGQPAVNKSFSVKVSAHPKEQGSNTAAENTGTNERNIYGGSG


What was measured:
[1] = biological target: T1, cynoSIRPα (EGM_02252), Extracellular …; test: SPR, antibody captured on Protein A/G, ECD-His analyte
Description: (§1) The binding kinetics of anti-SIRPα antibodies to various SIRPα analytes are determined by surface plasmon resonance (SPR) using a Biacore 8K+(Cytiva). 1×HBS-EP+(Cytiva) is used as running buffer and for all the dilutions unless stated otherwise. The Series S CM5 sensorchip is activated with a 1:1 mixture of 0.1 M NHS (N-hydroxysuccinimide) and 0.4 M EDC (1-Ethyl-3-(3-dimethylaminopropyl) carbodiimide hydrochloride) for 420 seconds at a flow rate of 10 μl/min and immobilized with Protein A/G (Thermo Scientific, 10 μg/ml in 10 mM acetate pH 4.5) for 420 seconds at a flowrate of 10 μl/min resulting in approximately 3000 RU of Protein A/G on the surface. The sensorchip is then deactivated with 1 M ethanolamine HCl pH 8.5 for 420 seconds at a flowrate of 10 μl/min.
(§2) Antibodies (approximately 1 ug/ml) are captured on the Protein A/G surface for 60 seconds at a flowrate of 10 μl/min resulting in capture levels of approximately 240 RU. Dilutions of each SIRP protein (Extracellular Domain+His-Tag, with the concentrations as indicated) are injected as analytes over the captured antibody for 300 seconds of association at a flowrate of 30 μl/min, followed by a dissociation for 600 seconds.

[2] = biological target: T4, Human SIRPαV1 (NP_542970.1), Extracellular Domain + His-Tag (human, UniProt P78324 31-373); test: SPR, antibody captured on Protein A/G, ECD-His analyte, 1:1 fit
T4 construct: also called huSIRPαV1; hSIRPαV1; not shown: His-Tag
Description: as §1, §2
(§3) The above procedures are used to measure binding properties of antibodies of the present disclosure. For each analyte used, the highest concentration was as indicated in Example 3 (see Table 36).

[3] = biological target: T2, cynoSIRPα (NP_001271679), Extracellular …; test: as above
Description: as §1, §2, §3

[4] = biological target: T5, Human SIRPαV2 (CAA71403.1), Extracellular Domain + His-Tag (human, UniProt P78324 31-373); test: as above
T5 construct: also called huSIRPαV2; hSIRPαV2; not shown: His-Tag
Description: as §1, §2, §3

[5] = biological target: T3, cynoSIRPα (XP_015313155), Extracellular …; test: as above
Description: as §1, §2, §3

T5 sequence (P78324 other isoform, or with tags, fused parts or gaps): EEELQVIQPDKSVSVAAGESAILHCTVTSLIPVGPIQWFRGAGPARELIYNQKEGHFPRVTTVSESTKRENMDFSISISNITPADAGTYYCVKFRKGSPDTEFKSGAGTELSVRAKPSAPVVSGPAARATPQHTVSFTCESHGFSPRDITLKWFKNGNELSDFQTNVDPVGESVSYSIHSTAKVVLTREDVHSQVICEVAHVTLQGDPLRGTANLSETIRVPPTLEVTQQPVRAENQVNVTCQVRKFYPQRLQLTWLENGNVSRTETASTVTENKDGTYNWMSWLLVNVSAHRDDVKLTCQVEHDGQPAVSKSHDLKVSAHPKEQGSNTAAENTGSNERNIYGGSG
T4 sequence (P78324 other isoform, or with tags, fused parts or gaps): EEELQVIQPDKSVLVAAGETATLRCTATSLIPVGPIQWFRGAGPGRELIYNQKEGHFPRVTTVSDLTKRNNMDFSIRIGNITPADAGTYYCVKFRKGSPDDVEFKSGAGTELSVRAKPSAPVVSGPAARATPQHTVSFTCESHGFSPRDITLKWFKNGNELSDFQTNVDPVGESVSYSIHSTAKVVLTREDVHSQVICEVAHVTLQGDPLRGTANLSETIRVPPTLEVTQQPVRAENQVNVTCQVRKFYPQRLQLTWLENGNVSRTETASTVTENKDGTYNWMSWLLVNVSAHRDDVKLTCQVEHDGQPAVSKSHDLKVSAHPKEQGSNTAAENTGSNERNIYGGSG

Binder | binding result [1] | Kd [2] [nM] | koff [2] [s⁻¹] | kon [2] [M⁻¹ s⁻¹] | Kd [3] [nM] | koff [3] [s⁻¹] | kon [3] [M⁻¹ s⁻¹] | Kd [4] [nM] | koff [4] [s⁻¹] | kon [4] [M⁻¹ s⁻¹] | Kd [5] [nM] | koff [5] [s⁻¹] | kon [5] [M⁻¹ s⁻¹]
Antibody E1 (antibody, human IgG1, kappa, L234A L235A, V domains shown) VH: QVQLQESGPGLVRPSETLSLTCTVSGGSIRNYYWSWIRQPPGKGLEWIGFIYYNGRTFYNPSLKSRVTISLDMSINQFSLKMTSVTAADTAVYYCARVRAYSGIGLDGTDVWGQGTTVTVSS VL: DIVMTQSPLSLPVTPGEPASISCKSSQSLLYSNGYAYLDWYLQRPGQSPQLLIYQGSNRASGVPDRFSGSGSGTDFTLKISRVEAEDVGVFYCMQALQTPLTFGGGTKVEIKR | no binding (tested: 1000 nM) | 0.72 | 0.000299 | 414000 | 17.9 | 0.00327 | 183000 | 0.63 | 0.00033 | 523000 | 16.7 | 0.00317 | 190000
Antibody E7 (antibody, human IgG1, kappa, L234A L235A, V domains shown) VH: QVQLQESGPGLVRPSETLSLTCTVSGGSIRNYYWSWIRQPPGKGLEWIGFIYYNGRTFYNPSLKSRVTISLDTSKNQFSLKMTSVTAADTAVYYCARVRAYSGIGLDGTDVWGQGTTVTVSS VL: DIVMTQSPLSLPVTPGEPASISCKSSQSLLYSNGYAYLDWYLQRPGQSPQLLIYQGSNRASGVPDRFSGSGSGTDFTLKISRVEAEDVGVFYCMQALQTPLTFGGGTKVEIKR | no binding (tested: 1000 nM) | 1.2 | 0.000453 | 378000 | 21.9 | 0.00346 | 158000 | 1.18 | 0.000552 | 468000 | 21.2 | 0.00337 | 159000
Antibody E2 (antibody, human IgG1, kappa, L234A L235A, V domains shown) VH: QVQLQESGPGLVRPSETLSLTCTVSGGSIRNYYWSWIRQPPGKGLEWIGFIYYNGRTFYNPSLKSRVTISLDMSINQFSLKMTSVTAADTAVYYCARVRAYSGIGLDGTDVWGQGTTVTVSS VL: DIVMTQSPLSLPVTPGEPASISCKSSQSLLYSNGYAYLDWYLQRPGQSPQLLIYLGSNRASGVPDRFSGSGSGTDFTLKISRVEAEDVGVYYCMQALQTPLTFGGGTKVEIKR | no binding (tested: 1000 nM) | 0.91 | 0.000419 | 459000 | 20.7 | 0.00526 | 254000 | 0.69 | 0.000367 | 535000 | 19.7 | 0.00512 | 260000
Antibody E4 (antibody, human IgG1, kappa, L234A L235A, V domains shown) VH: QVQLQESGPGLVRPSETLSLTCTVSGGSIRNYYWSWIRQPPGKGLEWIGFIYYNGRTFYNPSLKSRVTISLDMSKNQFSLKMTSVTAADTAVYYCARVRAYSGIGLDGTDVWGQGTTVTVSS VL: DIVMTQSPLSLPVTPGEPASISCKSSQSLLYSNGYAYLDWYLQRPGQSPQLLIYLGSNRASGVPDRFSGSGSGTDFTLKISRVEAEDVGVYYCMQALQTPLTFGGGTKVEIKR | no binding (tested: 1000 nM) | 0.99 | 0.000433 | 438000 | 21.1 | 0.00468 | 222000 | 0.82 | 0.000421 | 511000 | 19.8 | 0.00451 | 228000

Now from value to binder:

binding result [1] | Kd [2] [nM] | koff [2] [s⁻¹] | kon [2] [M⁻¹ s⁻¹] | Kd [3] [nM] | koff [3] [s⁻¹] | kon [3] [M⁻¹ s⁻¹] | Kd [4] [nM] | koff [4] [s⁻¹] | kon [4] [M⁻¹ s⁻¹] | Kd [5] [nM] | koff [5] [s⁻¹] | kon [5] [M⁻¹ s⁻¹] | Binder
no binding (tested: 1000 nM) | 1.02 | 0.000336 | 331000 | 38.2 | 0.00471 | 123000 | 0.87 | 0.000355 | 406000 | 37.8 | 0.00459 | 121000 | Antibody E5 (antibody, human IgG1, kappa, L234A L235A, V domains shown) VH: QVQLQESGPGLVRPSETLSLTCTVSGGSIRNYYWSWIRQPPGKGLEWIGFIYYNGRTFYNPSLKSRVTISLDKSKNQFSLKMTSVTAADTAVYYCARVRAYSGIGLDGTDVWGQGTTVTVSS VL: DIVMTQSPLSLPVTPGEPASISCKSSQSLLYSNGYAYLDWYLQRPGQSPQLLIYQGSNRASGVPDRFSGSGSGTDFTLKISRVEAEDVGVFYCMQALQTPLTFGGGTKVEIKR
no binding (tested: 1000 nM) | 0.96 | 0.000371 | 385000 | 17.3 | 0.00291 | 168000 | 0.78 | 0.000366 | 472000 | 16.9 | 0.00288 | 170000 | Antibody E3 (antibody, human IgG1, kappa, L234A L235A, V domains shown) VH: QVQLQESGPGLVRPSETLSLTCTVSGGSIRNYYWSWIRQPPGKGLEWIGFIYYNGRTFYNPSLKSRVTISLDMSKNQFSLKMTSVTAADTAVYYCARVRAYSGIGLDGTDVWGQGTTVTVSS VL: DIVMTQSPLSLPVTPGEPASISCKSSQSLLYSNGYAYLDWYLQRPGQSPQLLIYQGSNRASGVPDRFSGSGSGTDFTLKISRVEAEDVGVFYCMQALQTPLTFGGGTKVEIKR
no binding (tested: 1000 nM) | 1.21 | 0.00039 | 322000 | 17.7 | 0.0036 | 204000 | 0.54 | 0.000236 | 435000 | 16.6 | 0.00344 | 207000 | Antibody E8 (antibody, human IgG1, kappa, L234A L235A, V domains shown) VH: QVQLQESGPGLVRPSETLSLTCTVSGGSIRNYYWSWIRQPPGKGLEWMGFIYDNGRTFYNPSLKSRVTISLDMSMNQFSLKMTSVTAADTAVYYCARVRAYSGIGLDGTDVWGQGTTVTVSS VL: DIVMTQSPLSLPVTPGEPASISCKSSQSLLYSNGYAYLDWYLQRPGQSPQLLIYQGSNRASGVPDRFSGSGSGTDFTLKISRVEAEDVGVFYCMQALQTPLTFGGGTKVEIKR
no binding (tested: 1000 nM) | 1.03 | 0.000386 | 374000 | 41 | 0.00774 | 189000 | 0.88 | 0.000375 | 429000 | 41.6 | 0.00729 | 175000 | Antibody E6 (antibody, human IgG1, kappa, L234A L235A, V domains shown) VH: QVQLQESGPGLVRPSETLSLTCTVSGGSIRNYYWSWIRQPPGKGLEWIGFIYYNGRTFYNPSLKSRVTISLDKSKNQFSLKMTSVTAADTAVYYCARVRAYSGIGLDGTDVWGQGTTVTVSS VL: DIVMTQSPLSLPVTPGEPASISCKSSQSLLYSNGYAYLDWYLQRPGQSPQLLIYLGSNRASGVPDRFSGSGSGTDFTLKISRVEAEDVGVYYCMQALQTPLTFGGGTKVEIKR
